The values that follow come from PMC8779868, “Uncovering Novel Plasma Membrane Carboxylate Transporters in the Yeast Cyberlindnera jadinii” (Journal of Fungi, 2022).

One data set deals with T1, CjSlc16 (Williopsis jadinii, UniProt A0A1E4RTM6).
T1 construct: gene CYBJADRAFT_170140
The conditions noted are these: pH 6.0, 30 °C; labelled compound.

The target of another data set is T2, CjSlc13-2 (Williopsis jadinii, UniProt A0A1E4S914).
T2 construct: gene CYBJADRAFT_165372
The conditions noted are these: pH 6.0, 30 °C; labelled compound.

For another data set, the target named is T3, CjSlc13-1 (Williopsis jadinii, UniProt A0A1E4RYH4).
T3 construct: gene CYBJADRAFT_194887
T3 sequence (A0A1E4RYH4 1-843): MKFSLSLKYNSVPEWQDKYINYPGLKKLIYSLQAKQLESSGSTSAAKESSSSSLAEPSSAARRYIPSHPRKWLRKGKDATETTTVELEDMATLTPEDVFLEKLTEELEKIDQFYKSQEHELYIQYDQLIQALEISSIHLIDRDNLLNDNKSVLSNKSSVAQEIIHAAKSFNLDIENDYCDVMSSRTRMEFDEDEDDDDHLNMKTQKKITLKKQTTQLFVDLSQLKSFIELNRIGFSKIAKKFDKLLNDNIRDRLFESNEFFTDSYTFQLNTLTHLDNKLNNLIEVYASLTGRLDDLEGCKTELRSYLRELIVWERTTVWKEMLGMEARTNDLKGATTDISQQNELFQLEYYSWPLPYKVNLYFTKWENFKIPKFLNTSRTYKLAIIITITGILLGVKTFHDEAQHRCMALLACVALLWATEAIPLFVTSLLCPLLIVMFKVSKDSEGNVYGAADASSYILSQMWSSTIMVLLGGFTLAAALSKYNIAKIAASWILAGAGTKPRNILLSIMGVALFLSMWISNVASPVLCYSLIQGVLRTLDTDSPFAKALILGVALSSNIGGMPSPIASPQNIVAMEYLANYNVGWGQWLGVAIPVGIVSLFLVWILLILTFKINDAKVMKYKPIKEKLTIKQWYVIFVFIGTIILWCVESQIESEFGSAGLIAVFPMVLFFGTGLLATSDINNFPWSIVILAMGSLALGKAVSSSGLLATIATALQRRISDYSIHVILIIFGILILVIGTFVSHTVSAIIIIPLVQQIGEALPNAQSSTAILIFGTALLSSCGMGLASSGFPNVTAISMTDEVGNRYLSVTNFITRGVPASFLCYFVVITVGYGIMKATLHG
As to conditions: pH 6.0, 30 °C; labelled compound.

Substrate in data set [1]: CC(=O)O
In words: cells, lysate or membranes. As to conditions: pH 6.0, 30 °C, labelled compound, pH 6.0.

Substrate in data set [2]: O=C(O)CC(O)(CC(=O)O)C(=O)O
The data set can be described thus: cells, lysate or membranes. The conditions noted are these: pH 5.5, 30 °C, labelled compound, pH 5.5.

Substrate in data set [3]: C[C@H](O)C(=O)O
In words: cells, lysate or membranes. The conditions noted are these: pH 5.0, 30 °C, labelled compound, pH 5.0.

T1 sequence (A0A1E4RTM6 1-470): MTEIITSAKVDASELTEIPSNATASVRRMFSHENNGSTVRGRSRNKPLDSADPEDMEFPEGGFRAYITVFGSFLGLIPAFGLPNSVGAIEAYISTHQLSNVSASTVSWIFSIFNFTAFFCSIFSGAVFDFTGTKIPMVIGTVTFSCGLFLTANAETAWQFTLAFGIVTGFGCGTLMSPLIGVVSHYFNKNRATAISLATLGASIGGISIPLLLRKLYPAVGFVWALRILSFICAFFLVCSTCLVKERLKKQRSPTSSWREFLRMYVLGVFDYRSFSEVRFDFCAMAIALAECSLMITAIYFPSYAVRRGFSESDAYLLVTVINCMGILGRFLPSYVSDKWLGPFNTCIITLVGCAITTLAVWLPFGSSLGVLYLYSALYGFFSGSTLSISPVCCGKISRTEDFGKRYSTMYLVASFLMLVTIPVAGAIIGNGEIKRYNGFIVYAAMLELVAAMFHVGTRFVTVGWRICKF
T2 sequence (A0A1E4S914 1-821): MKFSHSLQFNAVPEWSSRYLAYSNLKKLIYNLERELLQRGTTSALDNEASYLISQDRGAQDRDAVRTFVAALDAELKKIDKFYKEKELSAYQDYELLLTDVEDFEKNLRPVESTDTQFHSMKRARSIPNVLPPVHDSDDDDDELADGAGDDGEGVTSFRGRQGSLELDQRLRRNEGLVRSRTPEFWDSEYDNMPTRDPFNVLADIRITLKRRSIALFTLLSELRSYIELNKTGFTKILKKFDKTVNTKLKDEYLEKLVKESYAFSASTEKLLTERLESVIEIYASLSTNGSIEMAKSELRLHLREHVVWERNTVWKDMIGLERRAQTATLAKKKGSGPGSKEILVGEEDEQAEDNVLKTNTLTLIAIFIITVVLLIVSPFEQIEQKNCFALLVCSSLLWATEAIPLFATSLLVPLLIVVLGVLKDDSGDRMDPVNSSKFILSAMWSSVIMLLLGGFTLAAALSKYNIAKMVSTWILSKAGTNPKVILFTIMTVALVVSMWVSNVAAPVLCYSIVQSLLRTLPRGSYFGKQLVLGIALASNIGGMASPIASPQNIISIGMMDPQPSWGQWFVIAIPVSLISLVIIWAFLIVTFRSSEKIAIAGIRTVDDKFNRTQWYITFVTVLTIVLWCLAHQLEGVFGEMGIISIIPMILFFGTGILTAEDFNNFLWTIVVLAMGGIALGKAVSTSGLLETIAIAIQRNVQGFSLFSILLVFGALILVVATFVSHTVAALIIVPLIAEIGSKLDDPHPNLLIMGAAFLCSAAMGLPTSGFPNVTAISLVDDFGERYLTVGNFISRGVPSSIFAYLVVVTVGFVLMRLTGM

Regarding `CC(=O)O` [acetic acid], the uptake result at CjSlc16, at CjSlc13-2 and at CjSlc13-1 was “All transformants presented activity for acetate uptake (Figure 3C)” each time.

B1: CjAto3 (Williopsis jadinii) (protein)
chain: MAANVDLEKQATPNSSNDNHTFSPEDEAHPVSKVYTSGENDQYIMIGRTKVLRSELWNAFGGDLQPGIHATPPRRFANPAPLGLCAFALTTFVLSMVNARAMGITTPNIVVGLALFYGGFVQLLAGMWEIALDNTFGGTALSSYGGFWMSYAAIQIDWFGIKSAYTDPIELANAVSFFLLGWTIFTFMILLCTVKSTVSFFSLFFFLEITFLLLTIGDFTRRVGVTRAGGVFGVITAFIAWYNAFAGIATKENSYITIKAWPLPGAKRA
By Km is commonly meant the substrate concentration at which the rate is half of its maximum. B1: the Km in data set [1] worked out at 9.17 ± 4.70 mM.

B2: CjJen2 (Williopsis jadinii) (protein)
chain: MTSPLPVSPTQDSGLEEPKEDKNIGLTRTLQENEEDSNSSNDEDVPDYSWSSIKRYSRTRFTTLGELHLDSLSDLNPLPALKEMTPRNWNFFFMGFIAWFSASFAFFLTAVSGTVIAESLEVSTKDITWGLSSVLMVRSAGAVIFGLWTDNYSRKWPFIATAAMFCVLQIGTGFCNTYTQFLAGGTYATAAATSLEDAPLKARSTLSGLFFTAYPFGMVFAAIFWRAFQETDHTWKALFWFSAGIPFVLIIWRLLYPETIYFTELLKVKKLIKEEASTSPKISKWAKTKTMFSKYWLLFTYLVLLLASSNFLTHASQDMYPTMLRSQFGWSNDAQTVAIVVTNLGGVIGSLVTGIVMEVLGRRLSILLCCVIGGSFIYPALMLHTTSATLGCGFFMMFGVLGVWGVIPAHLSELSPPDARVLVSGLAYQLGNLASSASSTIETDLAQRWPLEWDAEGNVIRLDYAKTIAVFTGAVFIYTVVIALVGPEKYHRDLNSPLLKKYFAKLRENDVEKGSSSE
As for B2, the Km in data set [1] stood at 1.26 ± 0.35 mM.

B3: CjJen1 (Williopsis jadinii) (protein)
chain: MHKLEESVTRQDSIHEDPDDVVIEDEQEIILNWPNIVEYSKTRFTSLTHLHLHAVGDLNPLPSLREMSWNNWNFFFMGFVAWFSASFDFFLTAVSGTYIAQSLDVSTADITWGLSAVLMVRSAGAVIFGLWTDNYSRKWPFITTAAMFCALQIGTGFCKTYQQFMAVRAISGIAMGGTYATAAATSMDDAPLKARSFLSGLFFSAYAFGMIFAAIFWRAFESTKHSWKALFWFSSCFPFILICWRLVFPETRYFTRVLKARELIKQDQIEAGVYVKPTLKTKWGSVKAMLKKDWLLFTYLVILLAGTNYLTHASQDMYPTMLRSQLEWSLDAQTVAIVVVNLGAICGGLIAGTFMEVTGRRLAILICCVIGGCFVYPAYMMHNNSAVLGGGFFLFFAVIGVWGVLPIHLSELSPPDARALVSGLAYQLGNLASSASSTIETRLAKLWPLEWDAEGNPIKYDYAKTIACFTGAVFIYVFITTFIGPEKFHRDLSSPLLKTYIEKVIEIEEGRDPEAKFVTSSGDTSEQASYGKATHEEIELDCYPQEKK
On to B3, for which, in data set [1], the Km was 2.15 ± 0.60 mM.

B4: CjAto5 (Williopsis jadinii) (protein)
chain: MSTSSLPEDLEKGYATQSLHEMNTAVTNDPSQPVVMRVVTSSNGDIIHLGNQAFSKKDLFNAFAGDLQPGLHATPHRPMGNPVPMGLTSFCICCFVVSLVNAQARGVTNAKVIASCALFFAGVVETISGLWCLVIENTFAATALGSFGGFWMGYAGLLIDAFGITSSYSTTEELGNALGFYLTAWTIFAFLMWLCTFKSTWPFFILFLLVWVFLMCLAIGKYNDNTTATKAGGVLGLVATFVGFFIVYAGVADSSNSYLTIPASPMPHAPRV
With B4, in data set [2], the Km is 22.21 ± 7.14 mM.

B5: CjJen6 (Williopsis jadinii) (protein)
chain: MGFKTYSMSECAQYTRERFTTLLPSREQWEVEKSHMNPFPGLRAMTWRNWQFYIIGMLAWTWDALDFFAMSLNMSNISEDLNRSVKDVSWGITLVLMFRSVGAIFFGYFGDRYGRKWPLIVNLICLIVIQIGTGFVKTYSEFLGVRALFGIFMGSMYGLASATALEGLPTDARSFLSGVFQQGYALGYLLAVIFQRAITDTTEKGWRSLFWFSAGPPVLFILWRAFLPETEEFLQQKLHMSNRKSTFRRDAWNTFKQQWVKMGYLVLLMAGMNFMSHGSQDLYPTMLTKQLGFSSDRSTVTNSVANLGAMAGGMVIGHFSGFIGRRAAIMVCCICGGAMIYPWAFVTGNGINAGVFFLQFFVQGAWGVIPIHLSELSPPEFRAFVVGVSYQLGNLVSSASSTIETTIGERFPLYTETGERREGVYDYAKVMAIFVGAVFAYVFLISFIGPENRHANINFVLSDEEQREMVSQGKIITHKGSDDENLDEEKAVAFHTENVVSEVK
Consider B5, for which, in data set [2], the Km is reported as 21.44 ± 7.17 mM.

B6: CjSlc5 (Williopsis jadinii) (protein)
chain: MFAETEDGPDYRGVTTFGAAVLIAKGQLGLGVLGIPSTFDVLGFVPGLISLVGLSILVTWTGVVIGQFRLAHPKVYCIDDATEIMFGKAARELVGWGYWLFYTMCYGAALITVSIALNTFSDHGLCTMAFIGIATGATTILTLFTRTMKVLSWLGFIAISCIFFAIWVVAIACLTQSTPAAAESLVDPAKKVIQVVATHSSYKKIAAAVSVQLLSLAGGASFFTIHAEMKDQTKYTKSLLMGQGFIVFNYIAIACIMYAKVGQYIASPALGSAGRTFQIISYGIAFPGLMFSCFFLAHLAAKYALVRILRGTEHLQKNSKTHWITWTAMVAIVIAVGFVIAGAIPFFGDLLGLIGALLGSIFALIAPGFMCLYDMNYKFEGKVPRGYTWIYKNNGSWTKNFWTKLETLLSFFCIASGIYILFTGVYGSIASIADLYSSGAVSGAFSCADNS
B6: the Km in data set [2] turned out to be 17.24 ± 4.73 mM.

B7: CjJen4 (Williopsis jadinii) (protein)
chain: MTAGRYIATRIPSLFTLPGTPVKSLNPAPAMRALSRSDWNYFAMGYCAWVIDAFDFFCVSACAPALAKAFDRSIHDITWGITLVLMTRSLGAVIFGSLSDTYGRKPTYLAVMALFSIIEIGTGFVQNYTQFLIVRLLFGICMGGCYTTASATALESQPTTSRSVLGGIFLPGYNLGYILAVAFYRAFEFSTHGWRALFWFSAAPPAILFMWRLMFPEHPHFVEHKRVQREKALAEGNHAQAASPWRQFYSDLKKALSNHWLMFVYLVFYLSLMNFSSHASQDLMPTMLQNQLFFSANQRTAIMIVVNLGAMVGGLCVGTLSEFTGRRLAIFSCAVGSSALIYPAFFSTSIGGLMAGGFFMQFFVMGCWGVCSVYIMELSPPAFRALFGGLAYQLGNLASSASSTIESEISSSFPLPDLGPSVYDYAKSMALFMVGVNVCLIVCIVCGPEYFHRDFSAHAEENYSDQKKATIEQFDTASDEERAMGSLKMNTEVEEFDMDKASVQHRESARD
For the molecule B7, in data set [1], the Km was 1.62 ± 0.43 mM.

B8: CjJen5 (Williopsis jadinii) (protein)
chain: MDWDAFDFFVMSLNVSKLATDLDRSVKDISWGITVVLMFRSVGAIVFGYFGDRYGRKWPLIVNLFCLVVIQIGTGFINTYAEFIGVRALFGVFMGSMYGLASATAMEGLPTSARSFLSGVYQQGYALGYLLGVIFQRAITDTTTHTWRSLFWFSAGPPKLKPFLQQQLHMKNKNTSFSEDACKVFKEQWLKMIYLVLLMAGMNFMSHGSQDLYPTMLTVQLNYSPNRSTVTNSVANLGALAGGMTFGHFSGFLGRRSGIIICSILGACMIYPWAFVRNSGINAGVFFLQFFVQGAWGVIPIHLSELSPPEFRAFVVGVSYQLGNLASSASSTIESTLGERYPLYDDNGDVIEGVYDYARVMAIFVGAVFCYVILIAFIGPENRHSNINYVLSKEEEEELIQQRMIVTNNGSEQDSNADDEEKLVTAHTEKIEPK
For B8, the Km in data set [1] worked out at 5.18 ± 1.51 mM.

B9: CjAto4 (Williopsis jadinii) (protein)
chain: MSDKENQTLNNPQTQDYASTGGKPDVEHGEIPVSKVYTTGDQDEYLMIGHQKVLRSELWTAFGGDLQPGVHAPPPQRLANPAPLGLCGFALTTFVLSMANARAMGVTIPNAAVGAACFYGGLVQLLAGMWEISLDNTFGGTALSSYGGFWMSWAAIQIDWFGIKKAYDDPIMLANAVGFFLLGWTIFTFMLVLCTVKSTVAFFSLFFFLDITFLLLTIGEFTRKTGVSRAGGVFGVITSFIAWYNAFAGLATKENSYVVAIPLPLPGAKRS
B9: in data set [1], the Km was determined as 1.28 ± 0.38 mM.

B10: CjAto1 (Williopsis jadinii) (protein)
chain: MSDKESQMLNTSQSQERAIDAGCDDLQEDVEHQQVPVSKVFTSGERDEYVMIGRTKVLRSELWNAFGGDLQPGIHAPPPRRFANPAPLGLCGFALTTFVLSMSNARAMGITVANVAVGPAFFYGGIIQLLSGMWEISLDNTFGGTVLSSYGGFWLSWAAIQIDWFGIQRAYDDPIMLNNGLGFFLLGWVIFTLMVLICTVKSTVAFFSLFFFLEMTFLLLTIGEFTRSVGVTRAAGVFGVITSFLGWYNALAGFATRENSYFVATAVPLPGAKRAQVHS
In the case of B10, the Km in data set [1] amounted to 12.18 ± 4.67 mM.

B11: CjJen3 (Williopsis jadinii) (protein)
chain: MAMSDVKRYILSRVPTLFCIPGTSFQALNPVPALSALSRNDWNYFLMGYAAWTIDAFDFFCVSACAPALAQALDRSVTDITWGITLVLMTREYFAHIDGQLTDIFEIGSLGAVIFGSLSDTYGRKPTYLAVMCLFCIIEVGTGFVQNYTQFLVVRAMFGICMGGCYTTASATALESQPVGSRSVLGGIFLPGYNLGYILAVAFYRAFEFTEHGWRALFWFSAAPPAILFVWRMFFPEHPHFTALKRVQREKALSEGKHHQASSPWAQFFADLKSAMRHHWLMFVYLVIYMSLMNFSSHASQDLMPTMLQNQLGFEANDRTIIMVVINIGAIFGGLCVGTISEYTGRRLAVFVCTICSSALIYPAFYTTDMAGLICGGFFMQFFVMGCWGVTSVYIMELSPNAFRALFGGLAYQLGNLASSASSTIEAEISEAFPLSDIGPEVYDYARSMALFMVGVNVCLVICIVSGPEKFHKDFSIQGEGQEQLQRKSCNDVDEELAIEYTEDLKHTDRVSWTEKHSIHHNEKT
Consider B11, for which the Km in data set [1] was 3.21 ± 1.07 mM.

B12: CjAto2 (Williopsis jadinii) (protein)
chain: MSSINEDLEKISSLGELNYDSHPISQVRTAGPNDEFVMLGRMKVRKSELWSAFGGDLQPGVHAQPQRKFANPVPIGLCGFALTTLVLSMANARAMGIRTPNVAVAPAFFYGGFAQILAGMWEIALENTFGSVVLTSYGCFWLSWAAIEIDWFGIKAAYDDPIELENAIGFFLLGWVIFTFLILLCTMKSTVAFFSMFFLLEITFILLTVASFTRHVGCQRAGGVFGVITGFLAWYNAYAGIATKEISYFVPKPWPLPGASHL
Regarding B12, the Km in data set [3] is listed as 4.33 ± 0.70 mM.
